This is an account of results in paper PMC6158253.

This series deals with T1, BmoR (MarR-type regulator) (Bacteroides fragilis 638R), ORF:dbdd3c1d.
T1 sequence: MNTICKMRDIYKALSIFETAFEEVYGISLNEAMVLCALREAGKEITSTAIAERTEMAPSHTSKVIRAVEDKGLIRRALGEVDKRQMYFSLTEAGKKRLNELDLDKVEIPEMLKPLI
The series is described as follows: EMSA. On the technique in general: Mobility shift assays separate free from complexed probe on a gel.
Turning to “CGTCTGACAGCAAGATAAAGTCCCTTAAAAGGGCCATGTTTCTTAATCGCTTCAATAGCGTATTGCGAACAAGTAGGAGTGAAACGACATGAAGGAGGAGT (double strand) [hlyD fragment (non-competitor DNA), 101 bp]”, the binding result is listed as “no binding”.

On to “CCTGCTACGCCTCCAATAATAATAATCTTCATTTGAATATATTTTCGTTTTAAAATAGTTTCCTATGGAAATAAACGTTTGCCGACTTAAAAAGGTTCATGGAAAAGCTTAAAAAATTAACAAGTATGGGTTATCTTACTTACGGAAGTGC (double strand) [BF638R_0572-bmoR operon promoter (bmoO), 151 bp]”, for which the binding result was “binds”.

With “CCGGCCTCCATATCAAACAATAACCCGTTGCAACCTATGGATATTGGTGGTGTTCCATTCTATCGTACCTATGCCGTTAATTTAACCGTAAGATTCTAAAACATCTATATTGAAAGATATGAAAACATTTAAATATTTATTTGCAGGAGTTTGTTCCGTGT (double strand) [BF638R_4194 promoter (Methods text says BF638R_4199), 161 bp]”, the binding entry was “no binding”.

For the sequence “ACGAGACCGATAAATGTGAGTCGGTTCTTTTTCAAAAATGCTTTAATCATCTTTATTTCAGGGTGTTTTAGAATCTGTCTGAATTTTGTTCGAGATTGTTTTGAGATTTATTTTCAAGGATATTCTCTTGTCTCTGTGAAGGCATAGCGGGCTATGTGACGCATGAAAACA (double strand) [BF638R_2699-2701 operon promoter, 171 bp]”, the binding entry is recorded as “no binding”.
